In patent publication US20240358850A1:

Target: denatured collagen type-IV
Assay: cell-based or functional assay

| Binder | inhibition of B16F10 melanoma cell adhesion to denatured collagen type-IV coated wells (antibody 100 µg/ml) [%] |
| --- | --- |
| Humanized anti-HU177 antibody (antibody, human IgG1, kappa, V domains shown) VH: QVTLKESGPALVKPTQTLTLTCTFSGFSLSTPGMGVWWIRQPPGKALEWLADIWWDDNKYTNPSLKSRLTISKDTSKNQVVLTMTNMDPVDTATYYCARRANYGNPYYAQDYWGQGTTVTVSS VL: DIVMTQTPLSLPVTPGEPASISCRSSQSIVSSWGNTYLEWYLQKPGQSPQLLIYKVSNRFSGVPDRFSGSGSGTDFTLKISRVEAEDVGVYYCFQGSHVPWTFGQGTKVEIKR | > 40 |
| MMAE-conjugated anti-HU177 antibody (Anti-HU177-MMAE) (antibody, V domains shown, MMAE conjugated with the Perkit Antibody MMAE Conjugation Kit; conjugation sites and chain not stated) VH: QVTLKESGPALVKPTQTLTLTCTFSGFSLSTPGMGVWWIRQPPGKALEWLADIWWDDNKYTNPSLKSRLTISKDTSKNQVVLTMTNMDPVDTATYYCARRANYGNPYYAQDYWGQGTTVTVSS VL: DIVMTQTPLSLPVTPGEPASISCRSSQSIVSSWGNTYLEWYLQKPGQSPQLLIYKVSNRFSGVPDRFSGSGSGTDFTLKISRVEAEDVGVYYCFQGSHVPWTFGQGTKVEIKR | > 40 |
